Test results as given in the supplement of paper PMC10567573.

B1: TRIM29 (parent)
chain: FAEKGELRKSIFSESRKPTVSIME

Variants of: B1
Experiment: protein stability index of a GFP-peptide fusion (GPS, HEK-293T) (PSI 1-6); higher = more stable
Conditions: c terminus: a fixed tail appended
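Note: lentivirally expressed fusions sorted by FACS into six bins by GFP to DsRed ratio, PSI derived from sequencing read proportions per bin multiplied by bin number.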

Going from FAEKGELRKSIFSELRKPTVSIME [S15L] to FAEKGELRKSIFSERRKPTVSIME [S15R], the protein stability index falls from 1.96 to 1.3.

Compared with FAEKGELRKSIFSEGRKPTVSIME [S15G], FAEKGELRKSIFSEKRKPTVSIME [S15K] is higher in protein stability index: 1.8 for the first, 2 for the second.

Compared with FAEKGELRKSIFSEVRKPTVSIME [S15V], FAEKGELRKSIFSETRKPTVSIME [S15T] is higher in protein stability index: 2.3 for the first, 2.31 for the second.

Compared with FAEKGELRKSIFSEERKPTVSIME [S15E], FAEKGELRKSIFSEHRKPTVSIME [S15H] is lower in protein stability index: 2.01 for the first, 1.52 for the second.

Compared with FAEKGELRKSIFSEFRKPTVSIME [S15F], FAEKGELRKSIFSECRKPTVSIME [S15C] is lower in protein stability index: 2.3 for the first, 1.59 for the second.

First: FAEKGELRKSIFSENRKPTVSIME [S15N]
Second: FAEKGELRKSIFSEYRKPTVSIME [S15Y]
The protein stability index of the first is lower: 1.64 for the first, 2.04 for the second.

First: FAEKGELRKSIFSEARKPTVSIME [S15A]
Second: FAEKGELRKSIFSEPRKPTVSIME [S15P]
The protein stability index of the first is lower: 1.75 for the first, 2.71 for the second.

Compared with FAEKGELRKSIFSEIRKPTVSIME [S15I], FAEKGELRKSIFSEWRKPTVSIME [S15W] is higher in protein stability index: 1.56 for the first, 2.29 for the second.

First: FAEKGELRKSIFSEQRKPTVSIME [S15Q]
Second: FAEKGELRKSIFSEDRKPTVSIME [S15D]
The protein stability index of the first is lower: 2.1 for the first, 2.26 for the second.

First: FAEKGELRKSIFSESRKPDVSIME [T19D]
Second: FAEKGELRKSIFSESRKPIVSIME [T19I]
The protein stability index of the first is higher: 2.15 for the first, 1.17 for the second.

Going from FAEKGELRKSIFSESRKPQVSIME [T19Q] to FAEKGELRKSIFSESRKPAVSIME [T19A], the protein stability index rises from 2.26 to 3.

First: FAEKGELRKSIFSESRKPLVSIME [T19L]
Second: FAEKGELRKSIFSESRKPFVSIME [T19F]
The protein stability index of the first is higher: 1.6 for the first, 1.59 for the second.

First: FAEKGELRKSIFSESRKPWVSIME [T19W]
Second: FAEKGELRKSIFSESRKPEVSIME [T19E]
The protein stability index of the first is higher: 2.94 for the first, 1.8 for the second.

First: FAEKGELRKSIFSESRKPYVSIME [T19Y]
Second: FAEKGELRKSIFSESRKPKVSIME [T19K]
The protein stability index of the first is lower: 2 for the first, 2.58 for the second.

Compared with FAEKGELRKSIFSESRKPVVSIME [T19V], FAEKGELRKSIFSESRKPCVSIME [T19C] is lower in protein stability index: 2.56 for the first, 2.39 for the second.

Going from FAEKGELRKSIFSESRKPRVSIME [T19R] to FAEKGELRKSIFSESRKPMVSIME [T19M], the protein stability index rises from 2.02 to 2.36.

First: FAEKGELRKSIFSESRKPPVSIME [T19P]
Second: FAEKGELRKSIFSESRKPNVSIME [T19N]
The protein stability index of the first is higher: 2.39 for the first, 1.72 for the second.

Compared with FAEKGELRKSIFSESRKPSVSIME [T19S], FAEKGELRKSIFSESRKPGVSIME [T19G] is lower in protein stability index: 2.74 for the first, 1.61 for the second.

First: FAEKGELRKSIFSESRKPHVSIME [T19H]
Second: FAEKGELRKSIFSESRAPTVSIME [K17A]
The protein stability index of the first is lower: 1.75 for the first, 2.43 for the second.

Compared with FAEKGELRKSIFSESRMPTVSIME [K17M], FAEKGELRKSIFSESRVPTVSIME [K17V] is higher in protein stability index: 1.33 for the first, 2.46 for the second.

Compared with FAEKGELRKSIFSESRFPTVSIME [K17F], FAEKGELRKSIFSESRDPTVSIME [K17D] is lower in protein stability index: 2.05 for the first, 1.65 for the second.

Compared with FAEKGELRKSIFSESRQPTVSIME [K17Q], FAEKGELRKSIFSESRRPTVSIME [K17R] is lower in protein stability index: 1.68 for the first, 1.53 for the second.

Compared with FAEKGELRKSIFSESRWPTVSIME [K17W], FAEKGELRKSIFSESRHPTVSIME [K17H] is lower in protein stability index: 2.22 for the first, 2.11 for the second.

Compared with FAEKGELRKSIFSESRLPTVSIME [K17L], FAEKGELRKSIFSESRIPTVSIME [K17I] is lower in protein stability index: 2.86 for the first, 2 for the second.

First: FAEKGELRKSIFSESRNPTVSIME [K17N]
Second: FAEKGELRKSIFSESREPTVSIME [K17E]
The protein stability index of the first is lower: 1.39 for the first, 1.67 for the second.

Going from FAEKGELRKSIFSESRSPTVSIME [K17S] to FAEKGELRKSIFSESRGPTVSIME [K17G], the protein stability index rises from 1.82 to 1.99.

Compared with FAEKGELRKSIFSESRTPTVSIME [K17T], FAEKGELRKSIFSESRYPTVSIME [K17Y] is higher in protein stability index: 2.12 for the first, 2.23 for the second.

First: FAEKGELRKSIFSESRPPTVSIME [K17P]
Second: FAEKGELRKSIFSESRCPTVSIME [K17C]
The protein stability index of the first is higher: 1.54 for the first, 1.28 for the second.

Going from FAEKGELRKSIFSESRKPTVSIGE [M23G] to FAEKGELRKSIFSESRKPTVSINE [M23N], the protein stability index rises from 1.57 to 2.38.

Going from FAEKGELRKSIFSESRKPTVSIDE [M23D] to FAEKGELRKSIFSESRKPTVSIQE [M23Q], the protein stability index rises from 1.92 to 2.47.

First: FAEKGELRKSIFSESRKPTVSILE [M23L]
Second: FAEKGELRKSIFSESRKPTVSIPE [M23P]
The protein stability index of the first is lower: 1.71 for the first, 1.84 for the second.

First: FAEKGELRKSIFSESRKPTVSIHE [M23H]
Second: FAEKGELRKSIFSESRKPTVSIEE [M23E]
The protein stability index of the first is higher: 2.56 for the first, 1.56 for the second.

First: FAEKGELRKSIFSESRKPTVSIKE [M23K]
Second: FAEKGELRKSIFSESRKPTVSITE [M23T]
The protein stability index of the first is lower: 1.66 for the first, 2.22 for the second.

First: FAEKGELRKSIFSESRKPTVSICE [M23C]
Second: FAEKGELRKSIFSESRKPTVSISE [M23S]
The protein stability index of the first is higher: 2.16 for the first, 1.58 for the second.

Compared with FAEKGELRKSIFSESRKPTVSIAE [M23A], FAEKGELRKSIFSESRKPTVSIWE [M23W] is higher in protein stability index: 1.47 for the first, 2.21 for the second.

Going from FAEKGELRKSIFSESRKPTVSIRE [M23R] to FAEKGELRKSIFSESRKPTVSIIE [M23I], the protein stability index falls from 2.22 to 1.49.

Compared with FAEKGELRKSIFSESRKPTVSIFE [M23F], FAEKGELRKSIFSESRKPTVSIYE [M23Y] is higher in protein stability index: 1.6 for the first, 2.2 for the second.

Compared with FAEKGELRKSIFSESRKPTVSIVE [M23V], FAEKGELRKSIFSESRKPTVSDME [I22D] is lower in protein stability index: 2.01 for the first, 1.99 for the second.

First: FAEKGELRKSIFSESRKPTVSTME [I22T]
Second: FAEKGELRKSIFSESRKPTVSKME [I22K]
The protein stability index of the first is lower: 2.04 for the first, 2.31 for the second.

Going from FAEKGELRKSIFSESRKPTVSPME [I22P] to FAEKGELRKSIFSESRKPTVSYME [I22Y], the protein stability index falls from 2.48 to 1.38.

Going from FAEKGELRKSIFSESRKPTVSGME [I22G] to FAEKGELRKSIFSESRKPTVSQME [I22Q], the protein stability index falls from 1.85 to 1.55.

Going from FAEKGELRKSIFSESRKPTVSFME [I22F] to FAEKGELRKSIFSESRKPTVSWME [I22W], the protein stability index falls from 1.79 to 1.67.

First: FAEKGELRKSIFSESRKPTVSMME [I22M]
Second: FAEKGELRKSIFSESRKPTVSVME [I22V]
The protein stability index of the first is lower: 1.49 for the first, 1.86 for the second.

Compared with FAEKGELRKSIFSESRKPTVSSME [I22S], FAEKGELRKSIFSESRKPTVSAME [I22A] is higher in protein stability index: 1.78 for the first, 2 for the second.

Compared with FAEKGELRKSIFSESRKPTVSCME [I22C], FAEKGELRKSIFSESRKPTVSNME [I22N] is lower in protein stability index: 2.68 for the first, 1.74 for the second.

First: FAEKGELRKSIFSESRKPTVSLME [I22L]
Second: FAEKGELRKSIFSESRKPTVSEME [I22E]
The protein stability index of the first is higher: 2.17 for the first, 2.06 for the second.

Compared with FAEKGELRKSIFSESRKPTVSHME [I22H], FAEKGELRKSIFSESRKPTVSRME [I22R] is lower in protein stability index: 3.02 for the first, 1.34 for the second.
